The target of one experiment is rh-α5β1 (Homo sapiens, UniProt P05556+P08648). Kind of experiment: Competition binding studies by Biolayer Interferometry (epitope groups). The note with it: for Response (nm) / % Response: secondary mAb pre-mixed with 20 nM rh-α5β1; for % Response: relative to antigen alone; for epitope group: two epitope groups among 6 antibodies. The protocol:
Epitope analysis via competition binding studies was performed using Biolayer Interferometry (BLI) on the 6 antibodies selected as described in Example 5. The anti-α5β1 FN blocking antibodies A2-7A05, C-14D12 and A-15B08 were immobilized on sensors and incubated with each of the other antibodies that had been preincubated with rh-α5β1, to determine whether this antibody-antigen association prevents or allows binding to the antibody on the sensor. The magnitude of observed binding (response) was compared to binding of antigen alone under the same conditions. If the overall response was greater than 120% of antigen binding alone, then the antibodies can pair with each other. If response was less than 80% of response of antigen binding alone, then the antibodies block each other. The protocol was as follows: preincubate the panel of antibodies with antigen (1 hr). Equilibrate the sensor (30 seconds (s))-->Load lead Ab on the sensor (700s)--->Quench (480s)--->Read baseline (480s)-->measure preincubated Ab+Ag association with loaded sensor (600s).

The target of experiment [1] is T1, recombinant human α5β1 integrin (rh-α5β1) (Homo sapiens, UniProt P05556+P08648).
T1 construct: purchased R&D Systems 3230-A5
Kind of experiment: Plate-based ELISA reactivity to rh-α5β1. The format is binding. The note with it: selected for further characterization among α5 specific hybridomas (28 selected). The protocol:
(§1) The 249 positive hybridoma supernatants selected as described in Example 1 were screened for reactivity to rh-α5β1 in a plate-based ELISA. Immulon4 HBX ELISA 96-well plates (Thermo Fisher Scientific, Waltham, MA, cat. no. 3855) were coated with rh-α5β1 (R&D Systems, Minneapolis, MN 55413, cat. no. 3230-A5), at 1 μg/mL in PBS supplemented with 0.5 mM MgCl2, MnCl2 and CaCl2 and incubated overnight at 4° C. Plates were washed 3 times with Wash Buffer (1× Tris Buffered Saline containing 0.05% Tween20), blocked with 2% BSA in 1×TBS (made from 10× Thermo Scientific Blocker BSA (10×) in TBS; Thermo Fisher Scientific, Waltham, MA, cat. no. 37520) for 2 hours at room temperature (RT) then incubated with hybridoma supernatants diluted 1:10 with Standard Diluent (2% BSA, 1×TBS, 0.05% Tween20). Following a 1 hour incubation at RT, wells were washed 3 times, incubated with biotinylated goat anti-mouse secondary antibody at 1:8000 dilution (Invitrogen, Carlsbad, CA, cat. no. 62-6540) for 1 hour, washed 3 times, then incubated for 30 minutes with poly-HRP Streptavidin (Thermo Fisher Scientific, Waltham, MA, cat. no. N200), washed 4 times, incubated with TMB (Thermo Fisher Scientific, Waltham, MA, cat. no. N301) for 5-10 minutes, followed by addition of ELISA Stop Solution (Invitrogen, Carlsbad, CA, cat. no. SS04). Absorbance 450 nm was measured.

For experiment [2], the target named is T2, purified recombinant human α5β1 integrin heterodimer, 6×His tagged (rh-α5β1); Acro Biosystems, cat. no. … (human, UniProt P08648 42-995; P05556 21-728).
T2 construct: bought recombinant heterodimer; also called rh-α5β1-6×His tagged protein; His-tagged-α5β1
The experiment in a line: ELISA, inhibition of rh-α5β1-His binding to coated FN, purified hybridoma mAb. The method, then: Immulon4 HBX ELISA 96-well plates were coated with FN by incubation overnight at 4° C. with 2.5 μg/mL human FN (R&D Systems, Minneapolis, MN 55413, cat. no. 1918-FN) in 1×PBS (0.01M phosphate buffer and 0.154M NaCl, pH 7.4). Plates were then washed 3 times with Wash Buffer (1× Tris Buffered Saline containing 0.05% Tween20), blocked with 2% BSA in 1×TBS for 2 hours at room temperature (RT). […] Isotype control antibody (Control Ab; Ms IgG2a EMD Millipore Corp, Billerica, MA, cat. no. PP102) was used to normalize data across different assay runs. […] Following 1 hour at RT, the wells were washed 3 times, incubated with biotinylated Anti-6×His-Tag Ab (Invitrogen, Carlsbad, CA, cat. no. MAI-21315-BTIN) at 1:1000 in Standard Diluent for 1 hour, washed 3 times, incubated for 30 minutes with poly-HRP Streptavidin (Thermo Fisher Scientific, Waltham, MA, cat. no. N200), washed 4 times, incubated with TMB substrate (Thermo Fisher Scientific, Waltham, MA, cat. no. N301) for 2-5 minutes, followed by addition of ELISA Stop Solution (Invitrogen, Carlsbad, CA, cat. no. SS04). Absorbance 450 nm was measured. Data points were normalized to the isotype Control Ab values at each concentration and reported as % Absorbance 450 nm normalized to Control Ab. Non-linear regression analysis was used to fit curves (4-parameter) to the data using GraphPad Prism version 9.0.2 (GraphPad Software, LLC, San Diego, CA).
(In general: An ELISA detects its analyte on a solid surface through an enzyme-linked reagent.)

Experiment [3] concerns the target T2, purified recombinant human α5β1 …. The experiment in a line: BLI (Octet), supernatant mAb on anti-mouse IgG Fc sensor, 20 nM rh-α5β1. An excerpt: Anti-Mouse IgG Fc biosensors were used to load each clone supernatant. Assay steps were as follows: Sensor Check (30s)-->Load Ab (700s)-->Quench (480s)-->Baseline(480s)-->Ab Assoc. (600s)-->Dissoc. (600s).
For experiment [4], the target named is T3, recombinant mouse α5β1 (rm-α5β1) (Mus musculus, UniProt P09055+P11688).
T3 construct: purchased R&D Systems 7728-A5
The experiment in a line: Plate-based ELISA cross-reactivity to rm-α5β1. The experiment is classed as binding. The following applies: hybridoma supernatant diluted 1:10; plate coated with rm-α5β1. The method, then:
as §1
In addition, hybridomas were tested for cross-reactivity to recombinant mouse α5β1 (rm-α5β1; R&D Systems, Minneapolis, MN 55413; cat. no. 7728-A5) using the same protocol as above except that the plates were coated with rm-α5β1.

Experiment [5] has as its target T4, recombinant human α5β1 integrin (rh-α5β1; R&D Systems, cat. no. 3230-A5) (human, UniProt P08648 42-995; P05556 21-728).
T4 construct: bought recombinant heterodimer
Kind of experiment: ELISA, coated rh-α5β1, supernatant 1:10. The method, then: Plates were washed 3 times with Wash Buffer (1× Tris Buffered Saline containing 0.05% Tween20), blocked with 2% BSA in 1×TBS (made from 10× Thermo Scientific Blocker BSA (10×) in TBS; Thermo Fisher Scientific, Waltham, MA, cat. no. 37520) for 2 hours at room temperature (RT) then incubated with hybridoma supernatants diluted 1:10 with Standard Diluent (2% BSA, 1×TBS, 0.05% Tween20). […] Absorbance 450 nm was measured.

The Kd is the free concentration of one partner at which half of the binding sites on the other are occupied at equilibrium, for simple one-to-one binding. By koff is commonly meant the rate constant with which the complex falls apart. In general, kon refers to the rate constant with which the complex forms.

T2 sequence (P08648 42-995 limits assumed, form in doubt, chain 1 of 2): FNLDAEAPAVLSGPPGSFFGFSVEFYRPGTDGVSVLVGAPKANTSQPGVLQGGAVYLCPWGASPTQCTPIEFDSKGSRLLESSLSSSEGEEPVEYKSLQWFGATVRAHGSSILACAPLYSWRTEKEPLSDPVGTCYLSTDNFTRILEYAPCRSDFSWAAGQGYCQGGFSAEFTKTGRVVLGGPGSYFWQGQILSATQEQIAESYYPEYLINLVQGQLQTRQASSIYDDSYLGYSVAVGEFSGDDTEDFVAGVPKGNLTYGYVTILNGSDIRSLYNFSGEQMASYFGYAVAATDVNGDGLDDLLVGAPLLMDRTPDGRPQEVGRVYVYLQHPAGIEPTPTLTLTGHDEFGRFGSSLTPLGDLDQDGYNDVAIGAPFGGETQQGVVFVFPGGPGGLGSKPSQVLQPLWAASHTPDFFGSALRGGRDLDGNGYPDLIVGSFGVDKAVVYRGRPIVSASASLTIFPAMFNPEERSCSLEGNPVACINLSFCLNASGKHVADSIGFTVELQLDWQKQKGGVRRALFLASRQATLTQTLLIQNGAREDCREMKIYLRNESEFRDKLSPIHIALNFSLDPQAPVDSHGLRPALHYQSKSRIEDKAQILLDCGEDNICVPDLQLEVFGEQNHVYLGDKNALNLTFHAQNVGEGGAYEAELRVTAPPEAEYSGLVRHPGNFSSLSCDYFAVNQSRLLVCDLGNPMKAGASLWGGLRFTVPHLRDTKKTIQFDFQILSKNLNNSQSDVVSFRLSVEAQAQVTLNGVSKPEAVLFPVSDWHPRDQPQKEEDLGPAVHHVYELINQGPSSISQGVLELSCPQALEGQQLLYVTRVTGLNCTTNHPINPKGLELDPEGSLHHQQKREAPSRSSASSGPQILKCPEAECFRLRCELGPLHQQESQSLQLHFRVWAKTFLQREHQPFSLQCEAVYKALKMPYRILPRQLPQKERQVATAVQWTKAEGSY
T2 sequence (P05556 21-728 limits assumed, form in doubt, chain 2 of 2): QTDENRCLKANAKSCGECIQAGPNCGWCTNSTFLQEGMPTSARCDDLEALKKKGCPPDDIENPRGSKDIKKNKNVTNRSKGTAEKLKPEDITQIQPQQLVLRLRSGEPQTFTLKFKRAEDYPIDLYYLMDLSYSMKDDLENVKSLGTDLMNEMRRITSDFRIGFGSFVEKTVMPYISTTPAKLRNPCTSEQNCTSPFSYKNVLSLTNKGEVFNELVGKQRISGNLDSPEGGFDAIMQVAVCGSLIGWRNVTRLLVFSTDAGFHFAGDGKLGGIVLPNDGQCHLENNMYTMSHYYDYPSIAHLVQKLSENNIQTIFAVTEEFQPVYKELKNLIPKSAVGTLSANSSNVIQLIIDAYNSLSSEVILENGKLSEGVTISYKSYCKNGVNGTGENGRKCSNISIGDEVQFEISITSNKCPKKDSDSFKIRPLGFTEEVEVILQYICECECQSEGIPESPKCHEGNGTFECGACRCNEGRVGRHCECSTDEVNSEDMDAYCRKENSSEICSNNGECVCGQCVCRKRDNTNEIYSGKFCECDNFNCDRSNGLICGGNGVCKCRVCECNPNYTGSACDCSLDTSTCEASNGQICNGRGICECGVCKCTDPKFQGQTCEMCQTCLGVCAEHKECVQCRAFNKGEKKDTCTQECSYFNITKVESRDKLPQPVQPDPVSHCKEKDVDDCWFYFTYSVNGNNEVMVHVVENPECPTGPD
Sequence of rh-α5β1 (P08648 42-894 limits assumed): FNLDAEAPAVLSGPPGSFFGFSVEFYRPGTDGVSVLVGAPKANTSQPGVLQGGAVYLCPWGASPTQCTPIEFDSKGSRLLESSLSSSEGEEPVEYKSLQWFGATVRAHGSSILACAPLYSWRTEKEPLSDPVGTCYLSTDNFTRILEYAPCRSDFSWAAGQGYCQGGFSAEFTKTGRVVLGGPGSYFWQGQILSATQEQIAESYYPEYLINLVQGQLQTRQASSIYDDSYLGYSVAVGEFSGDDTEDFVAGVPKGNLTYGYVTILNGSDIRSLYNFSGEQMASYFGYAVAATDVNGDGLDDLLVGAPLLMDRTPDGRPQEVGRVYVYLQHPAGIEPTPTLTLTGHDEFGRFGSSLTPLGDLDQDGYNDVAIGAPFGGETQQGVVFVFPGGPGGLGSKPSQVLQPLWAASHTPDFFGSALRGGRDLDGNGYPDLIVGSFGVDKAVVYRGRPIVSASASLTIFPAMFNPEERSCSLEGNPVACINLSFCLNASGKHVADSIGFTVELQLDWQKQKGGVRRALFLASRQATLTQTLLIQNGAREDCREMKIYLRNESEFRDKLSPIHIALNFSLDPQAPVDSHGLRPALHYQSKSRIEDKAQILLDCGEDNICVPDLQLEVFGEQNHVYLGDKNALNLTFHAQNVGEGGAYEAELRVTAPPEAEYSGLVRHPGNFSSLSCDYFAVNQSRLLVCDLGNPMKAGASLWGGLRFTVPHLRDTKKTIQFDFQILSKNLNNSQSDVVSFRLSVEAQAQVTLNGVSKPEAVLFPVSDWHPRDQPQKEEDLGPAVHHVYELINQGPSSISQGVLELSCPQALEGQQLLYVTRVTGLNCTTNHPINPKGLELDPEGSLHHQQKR
Sequence of rh-α5β1 (P08648 895-995 limits assumed): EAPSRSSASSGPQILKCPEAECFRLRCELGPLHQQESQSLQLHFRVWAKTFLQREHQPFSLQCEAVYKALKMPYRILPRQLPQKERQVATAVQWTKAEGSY
Sequence of rh-α5β1 (P05556 21-728 limits assumed): as the sequence (P05556 21-728 limits assumed, form in doubt, chain 2 of 2) above
T1 sequence (P08648 42-894 limits assumed): as the sequence (P08648 42-894 limits assumed) above
T1 sequence (P08648 895-995 limits assumed): as the sequence (P08648 895-995 limits assumed) above
T1 sequence (P05556 21-728 limits assumed): as the sequence (P05556 21-728 limits assumed, form in doubt, chain 2 of 2) above
T3 sequence (P11688 45-898 limits assumed): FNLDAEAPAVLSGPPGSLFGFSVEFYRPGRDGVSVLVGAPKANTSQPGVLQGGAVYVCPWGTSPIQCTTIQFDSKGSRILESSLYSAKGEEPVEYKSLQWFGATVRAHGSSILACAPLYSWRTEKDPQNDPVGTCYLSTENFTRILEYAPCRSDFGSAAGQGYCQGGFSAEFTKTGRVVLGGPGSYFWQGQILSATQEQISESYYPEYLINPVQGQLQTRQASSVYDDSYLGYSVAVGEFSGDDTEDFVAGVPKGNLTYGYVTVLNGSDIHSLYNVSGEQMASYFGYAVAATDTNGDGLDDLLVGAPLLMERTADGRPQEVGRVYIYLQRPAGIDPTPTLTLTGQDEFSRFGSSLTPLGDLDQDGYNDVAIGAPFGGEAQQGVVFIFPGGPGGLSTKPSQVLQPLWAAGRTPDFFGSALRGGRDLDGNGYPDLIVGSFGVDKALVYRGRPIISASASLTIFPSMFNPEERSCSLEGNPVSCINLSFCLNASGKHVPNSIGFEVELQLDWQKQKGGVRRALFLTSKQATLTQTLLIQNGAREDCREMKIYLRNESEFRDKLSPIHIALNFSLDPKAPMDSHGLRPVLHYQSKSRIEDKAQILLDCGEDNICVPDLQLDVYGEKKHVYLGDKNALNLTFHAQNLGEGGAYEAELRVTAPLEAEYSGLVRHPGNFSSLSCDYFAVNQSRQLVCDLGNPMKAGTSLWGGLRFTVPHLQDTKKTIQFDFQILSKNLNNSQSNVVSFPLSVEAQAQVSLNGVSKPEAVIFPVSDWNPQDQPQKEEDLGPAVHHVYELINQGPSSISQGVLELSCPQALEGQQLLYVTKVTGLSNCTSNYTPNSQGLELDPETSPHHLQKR
T3 sequence (P11688 899-999 limits assumed): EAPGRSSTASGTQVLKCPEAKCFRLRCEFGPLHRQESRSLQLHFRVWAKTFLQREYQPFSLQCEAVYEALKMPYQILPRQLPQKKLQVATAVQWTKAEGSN
T3 sequence (P09055 21-728 limits assumed): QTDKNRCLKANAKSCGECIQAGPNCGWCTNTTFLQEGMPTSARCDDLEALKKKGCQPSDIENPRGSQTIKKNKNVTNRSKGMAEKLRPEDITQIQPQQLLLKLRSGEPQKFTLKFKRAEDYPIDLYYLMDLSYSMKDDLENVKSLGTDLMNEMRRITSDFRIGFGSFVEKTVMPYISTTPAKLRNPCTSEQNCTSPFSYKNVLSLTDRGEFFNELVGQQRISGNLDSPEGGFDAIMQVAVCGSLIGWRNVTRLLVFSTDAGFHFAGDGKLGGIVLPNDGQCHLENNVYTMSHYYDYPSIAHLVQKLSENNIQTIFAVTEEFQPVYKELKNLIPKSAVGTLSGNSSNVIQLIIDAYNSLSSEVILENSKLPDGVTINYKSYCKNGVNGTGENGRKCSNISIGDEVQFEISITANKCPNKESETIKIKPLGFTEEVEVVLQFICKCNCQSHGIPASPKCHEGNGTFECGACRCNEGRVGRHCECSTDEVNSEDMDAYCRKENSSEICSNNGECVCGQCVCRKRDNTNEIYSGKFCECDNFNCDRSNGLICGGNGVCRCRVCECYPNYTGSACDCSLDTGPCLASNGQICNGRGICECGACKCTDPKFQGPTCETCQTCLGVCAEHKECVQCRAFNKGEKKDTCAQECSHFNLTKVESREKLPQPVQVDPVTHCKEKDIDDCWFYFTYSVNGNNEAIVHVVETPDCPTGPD
T4 sequence (P08648 42-995 limits assumed, form in doubt, chain 1 of 2): as the sequence (P08648 42-995 limits assumed, form in doubt, chain 1 of 2) above
T4 sequence (P05556 21-728 limits assumed, form in doubt, chain 2 of 2): as the sequence (P05556 21-728 limits assumed, form in doubt, chain 2 of 2) above

B1: A2-7F01: anti-α5β1 antibody, VH SEQ ID NO:91, VL SEQ ID NO:92 (antibody, V domains shown)
VH: QVQLQQPGAELVKPGASVKLSCKASGYTFTIYWINWVKQRPGQGLEWIGNIYPGSSSTNYNEKFKTKATLTVDTSSSTAYMQLSSLTSDDSAVYYCAITGTGGFAYWGQGTLVTVSA
VL: ENVLTQSPAIMSASLGEKVTMSCRASSSVNYMYWYQQKSDASPKLWIYFTSSLAPGVPTRFSGSGSGNSFSLTISSMEGEDAATYYCQQLTGSPFTFGSGTRLEIK
modifications: A2-7F01 VH Sequence; A2-7F01 VL Sequence
As to B1, the “binding of rh-α5β1 complexed with antibody to A-15B08 on the sensor” value with rh-α5β1 (antibody preincubated with rh-α5β1, A-15B08 immobilized on sensor) is “able to bind”. Moreover, the “binding of rh-α5β1 complexed with antibody to C-14D12 on the sensor” value with rh-α5β1 (antibody preincubated with rh-α5β1, C-14D12 immobilized on sensor) was “able to bind”. Besides, the “Response (nm)” value with rh-α5β1 (immobilized mAb A2-7A05) is recorded as −0.17 nm; with rh-α5β1 (immobilized mAb A-15B08), 0.29 nm; with rh-α5β1 (immobilized mAb C-14D12), 0.30 nm. For the same molecule, the “% Response” value is −472.70% in the experiment with rh-α5β1 (immobilized mAb A2-7A05), 142.59% in the experiment with rh-α5β1 (immobilized mAb A-15B08) and 133.09% with rh-α5β1 (immobilized mAb C-14D12). In addition, the epitope group result in the experiment with rh-α5β1 was “one group”. The “Selected Human α5 Specific” value in experiment [1] was “Yes”.

B2: A-15B08 (antibody, V domains shown)
VH: QVQLKESGPGLVAPSQSLSITCTISGFSLTSYGVHWVRQPPGKGLEWLVVIWSDGSTTYNSTLKSRLSISKDNSKSQVFFKMNSLQTDDTAMYYCARHYDYDGDWFAYWGQGTLVTVSA
VL: QIVLTQSPAIMSASLGERVTMTCTASSRVSSNSLHWYQQKPGSSPKLWIYSTSNLASGVPARFSGSGSGTSYSLTISSMEAEDAATYYCHQYLRSPPTFGGGTKLEIK
notes: mouse hybridoma antibody; also called A-15B08 (hybridoma)
On to B2, for which the “% Max Inhibition” value in experiment [2] was found to be 96%. Besides, in experiment [3], the Kd amounted to 1.31 nM, the koff amounted to 0.000431 s⁻¹ and the kon turned out to be 328000 M⁻¹ s⁻¹.

B3: A2-5D10: anti-α5β1 antibody, VH SEQ ID NO:51, VL SEQ ID NO:52 (antibody, V domains shown)
VH: QVQLKESGPGLVAPSQSLSITCTISGFSLTSYGVHWVRQPPGKGLEWLVVIWSDGSTTYNSTLKSRLSISKDNSKSQVFLKMNSLQTDDTAMYYCARHYDYDGDWFAYWGQGTLVTVSA
VL: QILLTQSPAIMSASLGERVTMTCTASSSVSSRCLHWYQQKPGSSPKLWIYSTSNLASGVPARFRGSGSGTSYSLTISSMEAEDAATYYCHQYYRSPPTFGGGTKLEIK
modifications: A2-5D10 VH Sequence; A2-5D10 VL Sequence
For the molecule B3, the “binding of rh-α5β1 complexed with antibody to A2-7A05 on the sensor” value with rh-α5β1 (antibody preincubated with rh-α5β1, A2-7A05 immobilized on sensor) is “able to bind”. The “Response (nm)” value in the experiment with rh-α5β1 (immobilized mAb A2-7A05) was 0.17 nm; with rh-α5β1 (immobilized mAb A-15B08) it was 0.22 nm; with rh-α5β1 (immobilized mAb C-14D12), 0.24 nm. Besides, the entries for the “% Response” value with rh-α5β1 (immobilized mAb A2-7A05), in the experiment with rh-α5β1 (immobilized mAb A-15B08) and with rh-α5β1 (immobilized mAb C-14D12) were 448.38%, 106.82% and 106.12%, respectively. Further, the epitope group entry with rh-α5β1 is on record as “second group”. Besides, in experiment [1], the “Selected Human α5 Specific” value was “Yes”.

B4: A-3A08: hybridoma clone positive on K562 cells (antibody, V domains shown)
VH: QVQLKESGPGLVAPSQSLSITCTISGFSLTTYGVHWVRQPPGKGLEWLVVIWSDGSTTYNSALKSRLNITKDNSKSQVFLKMNSLQTDDTAMYYCVRHGGLLRRDAMDYWGQGTSVTVSS
VL: QIVLTQSPAIMSASLGERVTMTCTASSSVSSNSFHWYQQKPGSSPKLWLYSTSNLASGVPARFSGSGSGTSYSLTISSMEAEDAATYYCHQYLRSPPTFGGGTKLEIK
As for B4, in experiment [4], the “Absorbance 450 nm Mouse α5β1” value is reported as 0.6708.

B5: C-14D12 (antibody, V domains shown)
VH: QVQLKESGPDLVAPSQSLSITCTVSGFSLTDYGVHWVRQPPGKGLEWLVVIWSDGSTTYNSALKSRLSITKDTSKRQVFLKMNSLQTDDTAMYYCARHAPSFIRYGSRYDALDYWGQGTSVTVSS
VL: QIVLTQSPAIMSASLGERVTLTCTASSSVTSSFLHWYQQKPGSSPKLWIYSTSNLASGVPARFSGSGSGTSYSLTISSMEAEDAATYYCHQYHRSPPTFGGGTKLEIK
notes: mouse hybridoma antibody; also called C-14D12 (hybridoma)
Turning to B5, in experiment [2], the “% Max Inhibition” value came out at 96%. In experiment [3], the Kd was 0.379 nM, the koff is 9.94e-05 s⁻¹ and the kon turned out to be 263000 M⁻¹ s⁻¹.

B6: A2-3B06 (antibody, V domains shown)
VH: QVQLKESGPGLVAPSQSLSITCTISGFSLTTYGVHWVRQPPGKGLEWLVVIWSDGSTTYNSALKSRLNITKDNSKSQVFLKMNSLQTDDTAMYYCVRHGGLLRRDAMDYWGQGTSVTVSS
VL: QIVLTQSPAIMSASLGERVTMTCTASSSVSSNSFHWYQQKPGSSPKLWLYSTSNLASGVPARFSGSGSGTSYSLTISSMEAEDAATYYCHQYLRSPPTFGGGTKLEIK
notes: mouse hybridoma antibody
As for B6, the “% Max Inhibition” value in experiment [2] is 93%. The “Absorbance 450 nm” value in experiment [5] amounted to 2.03. In experiment [3], the Kd amounted to 4.74 nM, the koff is 0.00137 s⁻¹ and the kon stood at 289000 M⁻¹ s⁻¹.

The record behind these values is patent US20240279345A1, “ALPHA 5 BETA 1 INTEGRIN BINDING AGENTS AND USES THEREOF” (PASITHEA THERAPEUTICS CORP., priority 2021, published 2024).
